Results as given in the DeepSol protein solubility set.

Test: soluble on expression in E. coli; label from the status in PepcDB or PDB records
In the case of “MNAAIHPRPAAERAPSYYAATLNEETDYPTLLGAVTVDIAIIGGGFTGVATAVELAERGYKVALVETHRIGWGASGRNGGQVTGSLSGDAAMHKQMRQWLGAEVEDFIWHLRWRGHEIIRQRVEKYGIACDLRHGHLHAAMKASHMGELQASYEEAVRRGMGDQVVLLDKAGVQAHLETELYCGALKNTRNMHLHPLNLCIGEARAAAGLGALIFEHSEVLDIVHGPRPAVITREGRIEAQQILLAGDVYHKLERRQLKGMIFPAMGGIVTTRPLGELAREINPQGLAVYDCRFVLDYYRPTADGRLLFGGGANYSGRDSRDITAELRPCIERTFPRLKGVEIEFQWSCAMGIVMNRIPQLGKLSDNVWYCQGYSGHGVATSHIMGEIMAKAMSGSLEQFDTFARCKHLRVPLGDLFGNPMLAAGMWYYQLMEKLRLEHHHHHH”, the “soluble on expression in E. coli” value was “not soluble”.
With “MATPASGALLQQMNLASQSLNYELSFISINKQGVESLRYRHARLDNRPLAQLLQMDGPRREVVQRGNEISYFEPGLEPFTLNGDYIVDSLPSLIYTDFKRLSPYYDFISVGRTRIADRLCEVIRVVARDGTRYSYIVWMDTESKLPMRVDLLDRDGETLEQFRVIAFNVNQDISSSMQTLAKANLPPLLSVPVGEKAKFSWTPTWLPQGFSEVSSSRRPLPTMDNMPIESRLYSDGLFSFSVNVNRATPSSTDQMLRTGRRTVSTSVRDNAEITIVGELPPQTAKRIAENIKFGAAQHHHHHH” the “soluble on expression in E. coli” value was “soluble”.
With “MCFRIADGTFFGWEGCFFQAGSCPGTCTHVWNYAQTVANLFPRLERNMRETEFLRETDGQGKMNFRAKIQLEGKPWDMYPAVDGQLGSILRVYREWKISGDDDFLKKIWNQVVSALEFSASYWDSNQDCVLDGQQHNTYDIEFYGVNSLGNSIYYAALKAGAEMAEYLGEHERSQKWRSMEQAGCKRMDEMLFNGEYYRQVTDGDIDEYKYQYGEGCLSDQLLGQTLAHLYGLGHLFPEDHVKSAVFAIYKYNFKERMGSHKSLQRGYAYQDEPGLLLCSWPSGGRPKQPFVYSDEVWTGIEYQVAAGLIYEGFLQEGLEIVRAVRSRYDGYKRNPFNEVECGNHYARSMASWGVLNALSGLQVDLPHNSVTISPKVNQDCFSSFYSTGTEWGICRQFKDQSGALIQSFEALYHADLEHHHHHH” the “soluble on expression in E. coli” value was “not soluble”.
With “MGKRLLDKLWERHVVTTNENGLDLLYIDLHLVHEVTSPQAFEGLRLTNRTVRRPDLTFATMDHNIPTKDVWNITDRIAKQQLDTLRENCKQFQVPLADIGDEEQGIVHVIGPELGLTQPGKTIVCGDSHTATHGAFGALAFGIGTSEVEHVLATQTLWQRKPKAMGIELKGKLQKGVYAKDIILHLLSKYGVAVGTGYVMEFYGETIGTMEMEERMTLCNMAIEGGAKAGIIAPDEKTFAYVKGRKYAPRDYETFEKKWFELYTDADAIYDLHISIDVTDLAPYVTWGTNPSMGVRIDEKLPEKHDVNDERAFSYMGLIPGQSTYDIPVQHVFIGSCTNSRLSDLEIAASVVKGRKVKEGVRALVVPGSKRVRDAAMQKGLHHIFEEAGFEWREPGCSMCLGMNPDQVPEGEHCASTSNRNFEGRQGKGARTHLVSPAMAAAAALYGHFVDIRKESYDGAISYS” the “soluble on expression in E. coli” value was “not soluble”.
In the case of “MSLRHLLRSLIGKTLAFFVEREDDNLTRVREHLMDLLDARPSPVRAQNLRSARQLLHKQADVFNRAFQAALQTSMDEEMRAVLPEAPASAVANDTSADPLDGMTLSLIDVCEVERILLVDRVAQRFTAHYDASVSALTQRLGVLLGRDVAALSSNPFRPEVFVRAFLLAWENSGLDKQATEDLMLSLDPLHSIDLTPLYADLNAMLTHAGIAAQPARRVIKSEGAGSSYLPLSPASAHAHLQGGEMRSGLGDLEPERARSAWDALAPAGRSIASHARQFLQRLGLASSSGQNDSGAGEGADWTPADGHETRTYLASADPEFMGYLGDLQAGAQAESAERILPGQHPGDRNVLRQMRDRDEVRRAPELDRGTVDALAEVFDFVFADQAIPVQMKFVIGRLQIPVLKAAMIDRDFFLSADHPARRLVDTLAQASIAWAPEKGESDPLYVRIENTVQRVLTEFEDDLALFSELLAEFTEFLFETEQQAQGRIEPAVDHERVGESFEQALAHADEVIHARIAALPSELPLAPFLAPFLTTQWREVLARAWLNVQASAAPWDSAVTSMDQLIWSTQPKTRIEERRQLVALLPELVRRLNAGLDAIEWVGEPRATFTRRLIATHMMAIRMTQAASVDSMSAALEANAGKEAMNELEQRRSGQLAGSVDDFDAMAQSFTRGLWFDFLLDEHTQHRCLLSWVSPMRTRLLFTNRDGFDAFVRSEREVAALLRHGRLHVIDQQPIVSRALDRIMSEGERKQEGHHHHHH”, the “soluble on expression in E. coli” value was “soluble”.
For “MGSDKIHHHHHHMEKILTKQEIEALLAAVFEGKIEPDKELAKAEATVQSYDLFSSESKGNIPNLDIIYDSFIRYQRGTLSNRLGRIVEIKKVGAASFKFDDFLHTMPSPVAMAVYKADPLKGAALIAFDSTLVFTIVDCILGGTGSSVVPTVGNRMFTSIELRLVQKIVMDVLADLEKAWAPIYATKMGFLRMEMNPRLVNIVPPEYQVVTMEMEIQIEEIIGKMIFAVPLTTIDPVREKLKNGAQVDMMAIDPQWSFRLSKELLEAPLDLSVEVGGAIISMDELLNLTPGDTIMLDTPCNSDLVVKVGGVSKFMSAPGLRHGNKAAQITTIIGKGREQ”, the “soluble on expression in E. coli” value was “not soluble”.
With “MVSKELVVCHLYGNLLNTYGDNGNLLMLKYLTEKMGVTFRSEIISIYEPFDPEKYDLVFVGGGQDFEQLIISEDIQNKKEALTSYIENDGVLLAICGGYQLLGHYYVGAQGEKIKGIGALDHYTLSQDNNRFIGDIEIYNEEFDETYYGFENHNGMTFLGEGERPLGTVKQGKGNNGQDNGEGVVYKNVFGSYFHGPILARNKNLGIRLIRTALEKKYGEPIAIPETLYK” the “soluble on expression in E. coli” value was “not soluble”.
In the case of “MNSRQMYEKIKERLVAHPHWTFRFDAKQDAMRVEDRRTKKGVTISLPGVIAKWHEQKDEAVREVVYYVEQTLKTMEEDAALSGNERNIYPVIRSASFPTETKEGVPLLFDDHTAETRIYYALDLGKTYRLIDERMLEKDKWSRERVKEIARFNVRSLPTPVKEARVADNVFYFVNPNDGYDASRILNESFLADMRARVEGTMAVAVPHQDVLVIADVRNDIGYDVLAQMTMSFFAGGRVPITALSFLYENGKLEPIFILGKKRRT”, the “soluble on expression in E. coli” value was “not soluble”.
For “SLDSEKVKVLSIEEDNQAEILKELGLPANASYYRIKRVRYSEDTPFLVHITHLPKKLVKEPLSKDLTAYASVYERVRKDFSVDLFSLASVETNEIVFPEDAELLNLLQLSFREPAVKQVKHSYLADGSVAEYIISYKHWKYFKTKIEVEAE”, the “soluble on expression in E. coli” value was “soluble”.
For “MQQNIQYTYSSDPRSGGNQNQQLHGISQFQQNSYQPTTYSNSNANNFHSSNSATFIPNSVTQTPQRRMGEEKSLVNMLDAYFIDSTTPSTSTSWNNQQPVQMSSIQQSVGSYNQQIPQLKVGDVDLQVEGMNVKLSSSPDKGEKDRVKKARQAEAARMRYHRLSNEEKRELNLKRTLAQKRKRQREKEMEELESILRETNDIQEDPDITEQLREKRMRAKWAEAARTRYARMTPEERRAHNTRRRMRQMQNAMSAIKACGMATGDPQKDDEAVRLHIKTQNAKKAEAARQRYHRMNDDEKRVYNQRRTEAFRRRRMEEEMLLAMPIGRINGEALDRAQQIVVRNAKRAEAARLRYQRMTPDQRKSYNQKRYTPKRRRNEMDDMISAGQMAVGSSGTITMGTGTPAKKDDMDALSSLERDVVKRTQHAQQILLRQRANQSSGTPRSVTPPPQAYIISNGQQQHQQLVGNQGNNGIGQHQVLHQGHMQQQQIQVSHQDFQQSSQSIPQNIYTSGMIIQNQGQQQQGQQQQQGQSQQILNNPYRT”, the “soluble on expression in E. coli” value was “not soluble”.
For “MGSDKIHHHHHHMKKIIIVSCLMSGVLNFGYSITTESIPTCSSFLSKLLSTAKSDTLSKVKLENCTFEEFKNNYDKDKFPVEFRNNQEEKSFYRHLKERDNYAGISNLYDMWKWVRFNRGFLEQQNEKLFHVYDKLNEVGINPESLDSMSYLNLKGINENINALTESINPSVEAIKYLLPDFEKYVAAYEKLAKEGDSLSYSDFKKASGRGATTANIQQIDQRILHQFRKEMHMNTANTAAMSSLNFGNGYGVSVGAAIGGHKGQYSLALGTAYTDYQTQVNVKIALPVKQPKPSNITYGVGFVYNFQ”, the “soluble on expression in E. coli” value was “not soluble”.
In the case of “MGSDKIHHHHHHMLQNPIHLRLERLESWQHVTFMACLCERMYPNYAMFCQQTGFGDGQIYRRILDLIWETLTVKDAKVNFDSQLEKFEEAIPSADDFDLYGVYPAIDACVALSELVHSRLSGETLEHAVEVSKTSITTVAMLEMTQAGREMSDEELKENPAVEQEWDIQWEIFRLLAECEERDIELIKGLRADLREAGESNIGIIFQQ”, the “soluble on expression in E. coli” value was “not soluble”.
With “MKKIISLALALALSASAAELKMATTTSTDNTGLLDALKPLYEKESGNTLKWVAVGTGAALKMGEDCNADVLFVHSPKAEKEFMKKGFGVDRTPVMYNDFIIIADKSLASKFKGKNLKESLELIKNEKLTFISRGDKSGTDNKEKSLWKNLGGVPEKQSWYQQSGQGMLASIKIAEEKKGVILTDRGTYIKYEANEKGKPNLVIVNEGDDSLKNFYSVIATNPKHCKNVNYTEASKFIKWVTSDKTLNFIADFKLLNKPLFVIDAKTRKD” the “soluble on expression in E. coli” value was “not soluble”.
In the case of “MIPPSLPAELKAALEQLLQGTQRADAATRAERISLNYRGGGTSAPITSEADALAYAGARMPATYAAVIACLNALTAIRPDFAPATLLDVGAGPGTASWAAAQAFESLQGFTLLDANPALRNLALRLTEARRLSAIDYRLGDAGKALADAPEVTLVIASYLINELGDAARASFADALWRKTSDTLLVVEPGTPAGYQRILQLRDRLIAQGAHVIAPCPHENACPLAAPDWCHFVQRLPRSKLHLQLKSADVPFEDEKFSYVALTRVPLPQRPARVLTQPEQTKAAITAKLCTPAGKLKLAVAARRDKPAYARFRRLDWGDALEAQADLEHHHHHH”, the “soluble on expression in E. coli” value was “not soluble”.
In the case of “MEMISNNLNWFVGVVEDRMDPLKLGRVRVRVVGLHPPQRAQGDVMGIPTEKLPWMSVIQPITSAAMSGIGGSVTGPVEGTRVYGHFLDKWKTNGIVLGTYGGIVREKPNRLEGFSDPTGQYPRRLGNDTNVLNQGGEVGYDSSSNVIQDSNLDTAINPDDRPLSEIPTDDNPNMSMAEMLRRDEGLRLKVYWDTEGYPTIGIGHLIMKQPVRDMAQINKVLSKQVGREITGNPGSITMEEATTLFERDLADMQRDIKSHSKVGPVWQAVNRSRQMALENMAFQMGVGGVAKFNTMLTAMLAGDWEKAYKAGRDSLWYQQTKGRASRVTMIILTGNLESYGVEVKTPARSLSAMAATVAKSSDPADPPIPNDSRILFKEPVSSYKGEYPYVHTMETESGHIQEFDDTPGQERYRLVHPTGTYEEVSPSGRRTRKTVDNLYDITNADGNFLVAGDKKTNVGGSEIYYNMDNRLHQIDGSNTIFVRGDETKTVEGNGTILVKGNVTIIVEGNADITVKGDATTLVEGNQTNTVNGNLSWKVAGTVDWDVGGDWTEKMASMSSISSGQYTIDGSRIDIGSVDHHHHHH”, the “soluble on expression in E. coli” value was “soluble”.
In the case of “MGSDKIHHHHHHMGNIEIKRVIAHHMDLGATKPTFLNNVIDISQEEMQDVIVFFGNHVKKALTTAQLKTCVFKNEDDEVYKYCKELAEDQSDDKLFVRVTRRMTIKLFYNMKRTSSTSSATLIFLHYFNVDSGKDYLGILKMDPNDGIELDPERVVFKVRKHMLPNVKERLHKSAFIKLDEKLFAEESHLYVLDKQQKMDGISKFFLEAFLNAKEVNSDKKTTAFFNTAVMEVARSEKVPNMFAIAKKVSDSMTEGKYIKVDSMLEEVLHDFIPGEEDRFDFIERVKQQMKKKNEDVQFEFTVEKEKEAISFLHNDDKSIQLRFKSILLGTDVFYDEEEDEDGNKFIVLKIREKNIESNFEFKK”, the “soluble on expression in E. coli” value was “not soluble”.
